# Results from paper PMC9463662, “Selection of DNA aptamer and its application as an electrical biosensor for Zika virus detection in human serum”.
# B1: Zika-07 (Zika-7) aptamer, 5'-FAM (ssDNA)
# DNA: TGACACCGTACCTGCTCTAGTGCGCACTGAACGATCCTGCGTCAAGTTCAAGGTTGTGAAGCACGCCAAGGGACTAT
# B2: Zika-25 aptamer, 5'-FAM (ssDNA)
# DNA: TGACACCGTACCTGCTCTAAGCACGCCAAGGGACTATAGGTTGACACCGTACCTGCTCTAAGCACGCCAAGGGACTAT
# B3: thiol-modified Zika-07 aptamer (ssDNA)
# DNA: B1 DNA
# modifications: 5'-SH
# Experiments:
# [1] = molecular target: T1, Zika virus envelope protein (Zika virus, UniProt A0A221S5X1 1-403); experiment: bead-based fluorescence binding assay; protein on streptavidin beads; conditions: protein: commercial
# [2] = molecular target: albumin (bovine serum albumin in sensor test) (UniProt P02769 25-607); experiment: capacitance biosensor; bovine serum albumin
# albumin (bovine serum albumin in sensor test), sequence (P02769 25-607): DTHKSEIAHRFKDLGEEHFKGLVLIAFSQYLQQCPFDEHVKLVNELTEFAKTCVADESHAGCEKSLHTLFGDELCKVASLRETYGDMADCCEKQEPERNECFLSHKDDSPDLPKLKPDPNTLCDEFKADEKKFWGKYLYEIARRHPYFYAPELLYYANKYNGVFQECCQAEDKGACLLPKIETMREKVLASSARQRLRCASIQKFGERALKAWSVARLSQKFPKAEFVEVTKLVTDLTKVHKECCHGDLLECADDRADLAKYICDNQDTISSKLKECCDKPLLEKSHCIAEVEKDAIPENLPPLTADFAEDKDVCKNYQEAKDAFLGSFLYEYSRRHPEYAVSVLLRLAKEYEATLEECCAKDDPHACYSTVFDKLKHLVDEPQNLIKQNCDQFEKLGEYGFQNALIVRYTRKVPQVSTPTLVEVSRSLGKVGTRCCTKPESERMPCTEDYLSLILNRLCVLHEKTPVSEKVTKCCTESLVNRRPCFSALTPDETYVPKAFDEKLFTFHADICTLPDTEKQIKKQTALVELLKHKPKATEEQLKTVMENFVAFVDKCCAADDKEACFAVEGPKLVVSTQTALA
# [3] = molecular target: T1, Zika virus envelope protein; experiment: capacitance biosensor; aptamer/MXene on Au micro-gap electrode; DIW or 10% human serum; LOD 38.14 pM in serum; conditions: protein: commercial
Binder,Kd [1] [nM],binding result [2],binding result [3]
B1,107 ± 1.9,,
B2,226 ± 9.6,,
B3,,no binding,binds
